The data set can be described thus: label from the status in PepcDB records.
Consider “MKKLLTVTFFTGMLTFFKMISGFIISKIVAIYTGPSGIVLFGQIQSIVSALNGVINSPVGPGIVRFTAENHRKGLEHCYKWWIAGLSWVCIISAIIIPLSITLSSHIAFWTLGSEKYSWVIILTACLLPLTAIGTFISSVINGFQNYKVYVLLGIISAFLSLIIMIALIVFGKINGALLAISVQNALIGGVMIIYASSQPWFNLRWLYGRVHKTYYKDIQRYIVMAITSAIVVPGSLIIVRNIIIHYVGWTEAGYWQAVWKISETYLAIITIALSTYYLPRLSSLSQKDDIIKEISSSLKIIIPLVMFFSMGIYLSRDFIISLLFTKEFLGARMLFQVQLIGDILKIASWLYAYVMISKGMTQLFVISEVLFSLLFISFSLVFIRCYGLIGVTYAYCLNYFIYLVFSVVVVKRAKYD”, for which the protein production result is given as “failed”.

As to “MKKLSFFLIATLSLGACSTATSPTGRHQVFSGVSQQQLNQLGEQAFVEIKAKEKISGNVRQNAYVRCVVDALVTELPLQWRHVKWETVLFLNEEPNAFALPGGKVGVNTGIFRAAKNQEQLAAVLGHEIGHVVSRHHEERITWQLGTQAGLGLLGVLAGTAYGDSAATAVNQIGGLTAQAAFLLPGSRTQEREADIVGQRLMAQAGFDPIQAVYLWKNMLAIAGQRPPQWLSTHPDPTNRIRQLEQQSAVLASVYAQARDAGRVPHCSPAALEHHHHHH”, the protein production entry is given as “failed”. For the sequence “MKKLTSLFPLLFLIPLLASCAEEKQVYIVYFGEHKGDKAFHEIEEHHHSYLQSVKESEEDARASLLYSYKHSINGFAAELTPDQASKLEKLAEVVSVFKSHPRKYEAHTTRSWEFVGLEEEETDSDVPRRKNDADDRFRVGRNFLKKAKHGDGIIVGVLDSGVWPESKSFNDKGMGPVPKSWKGICQTGVAFNSSHCNRKIIGARYYVKGYERYYGAFNATANKDFLSPRDPDGHGSHTASTAVGRRVLGASALGGFAKGSASGGAPLARLAIYKACWAKPNAEKVEGNICLEEDMLAAIDDAIADGVHVISISIGTTEPFPFTQDGIAMGALHAVKRNIVVAASAGNSGPKPGTLSNLAPWIITVGASTLDRAFVGGLVLGNGYTIKTDSITAFKMDKFAPLVYASNVVVPGIALNETSQCLPNSLKPELVSGKVVLCLRGAGSRIGKGMEVKRAGGAGMILGNIAANGNEVPSDSHFVPTAGVTPTVVDKILEYIKTDKNPKAFIKPGKTVYKYQAAPSMTGFSSRGPNVVDPNILKPDITAPGLYILAAWSGADSPSKMSVDQRVAGYNIYSGTSMSCPHVAGAIALLKAIHPKWSSAAIRSALMTTAWMTNDKKKPIQDTTGLPANPFALGSGHFRPTKAADPGLVYDASYRAYLLYGCSVNITNIDPTFKCPSKIPPGYNHNYPSIAVPNLKKTVTVKRTVTNVGTGNSTSTYLFSVKPPSGISVKAIPNILSFNRIGQKQRFKIVIKPLKNQVMNATEKGQYQFGWFSWTDKVHVVRSPIAVSLA”, the protein production result was “failed”. As to “MKKMKTLTLFLSLLFSFPFVLSAQMVGETLQKVSAALDNRQWDQAVTLFRQAVNTNVEKAEMFYWTGVDKSLEVSSRIGRELAAYYKKSRSYDKAYLFYKELLQKSPNDVNCLVSCAEMEVCRGRESEALETYRKVLSLDADNLAANIFIGNYLYLKAEREKKQLEADYKKISAPTRMQYARYRDGLSRVMSTGYGKAREYLQKVISQFPSTEAQKTLERIKLIEKEVNR”, the protein production entry is reported as “failed”. With “MKKPNHSGSGQIRIIGGQWRGRKLPVPDSPGLRPTTDRVRETLFNWLAPVIVDAQCLDCFAGSGALGLEALSRYAAGATLIEMDRAVSQQLIKNLATLKAGNARVVNSNAMSFLAQKGTPHNIVFVDPPFRRGLLEETINLLEDNGWLADEALIYVESEVENGLPTVPANWSLHREKVAGQVAYRLYQREAQGESDAD”, the protein production entry is on record as “not failed”. Next, “MKKRAIVAVIVLLLIGLDQLVKSYIVQQIPLGEVRSWIPNFVSLTYLQNRGAAFSILQDQQLLFAVITLVVVIGAIWYLHKHMEDSFWMVLGLTLIIAGGLGNFIDRVSQGFVVDMFHLDFINFAIFNVADSYLTVGVIILLIAMLKEEINGN”: “failed”; “MKKRILSAVLVSGVTLGAATTVGAEDLSTKIAKQDSIISNLTTEQKAAQNQVSALQAQVSSLQSEQDKLTARNTELEALSKRFEQEIKALTSQIVARNEKLKNQARSAYKNNETSGYINALLNSKSISDVVNRLVAINRAVSANAKLLEQQKADKVSLEEKQAANQTAINTIAANMAMAEENQNTLRTQQANLEAATANLALQLASATEDKANLVAQKEAAEKAAAEALAQEQAAKVKAQEQAAQQAASVEAAKSAITPAPQATPAAQSSNAIEPAALTAPAAPSARPQTSYDSSNTYPVGQCTWGAKSLAPWAGNNWGNGGQWAYSAQAAGYRTGSTPMVGAIAVWNDGGYGHVAVVVEVQSASSIRVMESNYSGRQYIADHRGWFNPTGVTFIYPHLEHHHHHH”: “failed”; “MKKSSILILIIICLVGCKKGSNETTITGEIKGLGTDTLYLYGMDELYDRIDTIYVENDKFSYTTSVDTITSAYLLLKNRIEYPVFLDKGNKIKIKGDTINLNFLTISGNIYNEEFTDFQKALEDPADPSEKAGEETVDKRITVEKANTAEEMAEEFILQHHSSYVSLYLLDKYFVQKETPDFSKIKKLVEVMTGVLQDKPYIERLNETITQAEKSEIGKYAPFFSLPNAKGEKITRSSDAFKQKSLLINFWASWNDSISQKQSNSELREIYKKYKKNKYIGMLGISLDVDKQQWKDAIKRDTLDWEQVCDFGGLNSEVAKQYSIYKIPANILLSSDGKILAKNLRGEELKKKIENIVEEATEKEKKNKQKK”: “failed”. Turning to “MKKTLKILAGFVAVVIIIALGIFTSRKLYQNHVDKINHIGKVMDSYKGVKVYYNGKKYAESHGKNYSKDGYYYGYKWQVEYIKRFYYEAKGHSMPNGFGNAKDFFDPKVGQGKLNKDRGLFQYKNGENEKPKADDILVFTDTKYGHVVIVTKVTDDTVEVIQQNMGNKTRDQFKLEYENGKYFVCGKRKPKGWLRKGLEHHHHHH”, the protein production result is given as “not failed”. Take “MKKTLLAIVAVSALSACRQAEEGPPPLPRQISDRSVGHYCSMNLTEHNGPKAQIFLNGKPDQPVWFSTIKQMFGYTKLPEEPKGIRVIYVTDMGNVTDWTNPNADTEWMDAKKAFYVIDSGFIGGMGAEDALPFGNKEQAEKFAKDKGGKVVGFDDMPDTYIFK”: the protein production result is listed as “failed”.

For “MKKVFITTGTEHYLRQLMENYIGENVTLLQNFSQSLLYQESTGEKLFQEGKEYRVLQSSGSLKGFGIVVFEYIQLRDEEIPIFLQMYQHASLHFSETPGLQSTKLTKAMNTNQFLIVSFWDSEVFFQEWKKTPLHKEITSIMKKNNTQVGFSHEDIYHYPEFSHDAK”, the protein production entry is listed as “not failed”. As to “MKKWIKIVLYSLLAILIVGSITFLSWSQFTYKPTKEALSLVDDKKDEDYIVFGEKDAKIGVIFYQGAKVEAEAYSYLGEALAKDGHFVVMPKLPLNLALFGINEVDSVIEQYPEVQKWYVAGHSMGGAMISRYAFQHEEKVDGIIFLGSYPADDFSTKSIPMLSIYGEVDALATVEKIENNKKFMSKNTTMHMIKGGNHAHFGMYGEQKGDNASLITAKAQRDETVKVIEQWLLEQ”, the protein production entry was “failed”. As to “MKKWLLAAGLGLALATSAQAADKIAIVNMGSLFQQVAQKTGVSNTLENEFKGRASELQRMETDLQAKMKKLQSMKAGSDRTKLEKDVMAQRQTFAQKAQAFEQDRARRSNEERGKLVTRIQTAVKSVANSQDIDLVVDANAVAYNSSDVKDITADVLKQVK”, the protein production result is on record as “not failed”. With “MKKWRFLGIDDSFDDRKCCVVGCVTCGGYVEGFLYTEIDIDGLDATDKLISMVRRSKFREQIKCIFLPGITLGGFNLVDIQRVYRETKIPVVVVMRRKPDMEEFDSAMRNLENYELRRKIVEVAGEIHRIGDIYIQTAGLTPSEAEKLVKASLIKGNMPEPVRISHLVASAIIHGESRGKA”, the protein production result is “not failed”. For the sequence “MKLASGFLVLWLSLGGGLAQSDTSPDTEESYSDWGLRHLRGSFESVNSYFDSFLELLGGKNGVCQYRCRYGKAPMPRPGYKPQEPNGCGSYFLGLKVPESMDLGIPAMTKCCNQLDVCYDTCGANKYRCDAKFRWCLHSICSDLKRSLGFVSKVEAACDSLVDTVFNTVWTLGCRPFMNSQRAACICAEEEKEEL”, the protein production result was “failed”. With “MKLAYWMYAGPAHIGTLRVATSFKNVHAIMHAPLGDDYFNVMRSMLSRERDFTPVTTSVVDRHVLARGSQEKVVDNITRKDAEERPDLIVLTPTCTSSILQEDLENFVERAQLEAKGDVLLADVNHYRVNELQAGDRTLHQIVQYYIEKARKKGELPEGKTAKPSVNIIGISTLGFHNNHDCTELKRLMADLGIEVNAVIPEGASVHELKNLPRAWFNLVPYRELGLMTANYLEKEFGTPCIDIVPMGVVETARCIRKIQEVINAQGADVNYEDYINEQTLYVSQAAWFSRSIDCQNLTGKKAVVFGDNTHAAALTKILSREMGIHVVWAGTYCKYDADWFREQVSEYCDEVLITEDHGEIGDAIARVEPSAIFGTQMERHVGKRLDIPCGVIAAPIHVQNFPIGYKPFLGYEGTNQITDLIYNSFTLGMEDHLLEIFGGHDTKEVITKGISAGSDLSWTKDGLAELNKIPGFVRGKVKRNTEKFARDRGFKDISAEVLYAAKEAVGA”, the protein production result was “failed”. For the sequence “MKLCFNEATTLENSNLKLDLELCEKHGYDYIEIRTMDKLPEYLKDHSLDDLAEYFQTHHIKPLALNALVFFNNRDEKGHNEIITEFKGMMETCKTLGVKYVVAVPLVTEQKIVKEEIKKSSVDVLTELSDIAEPYGVKIALEFVGHPQCTVNTFEQAYEIVNTVNRDNVGLVLDSFHFHAMGSNIESLKQADGKKIFIYHIDDTEDFPIGFLTDEDRVWPGQGAIDLDAHLSALKEIGFSDVVSVELFRPEYYKLTAEEAIQTAKKTTVDVVSKYFSM”, the protein production result is “not failed”.

With “MKLEERIKSKITILVFIAILMYFLLNYGNDVRGIINNIYSIFFPFILGGCIAFILNIPVTFFSKKLLNCKIKFIGKVVRKYNISISIVASCILIIGIFALISAIIIPNIIQTIKILPNAFDNSITAFQKFVNENSWMSKNVTSLVNNLNIDWNGILNKVKITIITGASSVFMSTLGAATTFASTAIEFVLSFIFSIYILAQKNKLGTQVKMVLYAFFKKQKVDSALEVLKLTSNTFSNFITGQCTVSIILGVMFFIVMTILKLPYAIEVSIIIAFFSVIPMIGSIIGFVLSVLLLLIFNPIKAGVFVFVFLAIKQVEDNFIYPKIVGNSVGLPSILVLVAITLGGKVLGVPGMIMSIPLFSVAYVLLRKEVYTRLEKKALKVE”, the protein production result is “failed”. For the sequence “MKLETIDYRAADSAKRFVESLRETGFGVLSNHPIDKELVERIYTEWQAFFNSEAKNEFMFNRETHDGFFPASISETAKGHTVKDIKEYYHVYPWGRIPDSLRANILAYYEKANTLASELLEWIETYSPDEIKAKFSIPLPEMIANSHKTLLRILHYPPMTGDEEMGAIRAAAHEDINLITVLPTANEPGLQVKAKDGSWLDVPSDFGNIIINIGDMLQEASDGYFPSTSHRVINPEGTDKTKSRISLPLFLHPHPSVVLSERYTADSYLMERLRELGVL”, the protein production entry is “not failed”. As for “MKLHTSDLLIICAYLIAMIVIGLILKKRAAQNMDSYFLGGKSLPFYMLGLSNASGMFDITGTMLMVYWAFAYGFKSLWIPWLWPVFNQIFLMVYLSVWLRRSNVLTGAEWIKTRFGKGKGATLSHTIVVVFALLSVLGFLSYGFIGIGKFMEIFIPWEVISPYIPFTVSPEYVPHVYGIFFTAIATFYVMLGGMLSIVWTDVVQFLIMTVAGIVIVVIGMQMVAPDMIHSFVPAGWDSPFFGWTLDIDWSSRMSLLTERMANEPYSLIGIFVMMALLKGIFMSMAGPAPNYDMQKILSCKSPKEAAMMSGSVSVVLLIPRYLMIMGFALLAIYFFKEDGGLTQMEVTRTDFETILPHLITRYVPAGFAGLLLAGLLAAFMSTFASTVNAAPAYIVNDIYLKYINPKASVKTQIRSSYVISVAVVVVSTVIGFFLKDINEIFQWIVGALFGGYIAANVLKWHWWRFNGEGYFWGMTAGVVAAIVMKFTVPDAWVLYFFPVLFGVSLIGCIIGTYSAPATDEETLINFYVNVRPWGCWKPIQEKAIARYPHIQANKNFKRDAFNVAIGIIWQCTLTIIPMYLVVREQLGLWSSIALLLITTLILRKTWYKPLCKEEARYNEEMKQIR”, the protein production result is “failed”.

Source of the values: a protein production outcome set (Wang et al. 2014).
